We go through 41 sequences from the nanobody polyreactivity screen of Harvey et al. (2022).

This data set in a line: yeast display, Sf9 membrane polyspecificity reagent, FACS + sequencing; frameworks hold sequencing errors. Put shortly:
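Genes from sorted yeast were amplified by colony PCR, read by MiSeq 2 × 250 sequencing and filtered on CDR length. These cells carried a synthetic nanobody library in Saccharomyces cerevisiae BJ5465 and were sorted by FACS into low and high (top ~1%) gates on anti-HA and streptavidin fluorescence. Polyreactivity is labelled according to the gate of origin.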
Take “QVQLVESGGFLVQAGGSLRLSCDASGSILADTSLGWYRQAPGKERELVAAISRRGGRTYYADSVKGRFTISRDNAKNTVYLQMNSLKPEDTGGYYCAAVGSFHIGDYWGLGTQVTVSS”: the “polyreactivity (PSR sort gate)” value is reported as “high polyreactivity”.
Under “QVQLVESGGGCVQAGGSLRLSCAASGFIFEQNAKGWYRQARGKEWELVARISWRGGSTYYADSEKGRFTISRDKAKITVYLQMNSLKPEDSAVYYCNAHEVDYFGYYPSDYWGQGTQVTVSS” stands “low polyreactivity”; under “QVQLVESGGGFFQAGGSLRLSCAASGTIGRNAMGWYRQAPGKESEFVPAISYRGTSTYYADSVKGRFTISRDNAKNTVYLQMKSLKPDDTAVYYCATYWAAGYRSRYDYWGQVTQVTVSS”, “high polyreactivity”; under “QVQLVESGGGFVQAGASLRLSCAASGSIFRIYAIGWYRQAPGKERELVAAIDSGGSTNYADSVKGRFTISRDNAKNTVYLQMNSLKPEDTAVYYCNVDAWWLSYSEYDYWGQGTQVTVSS”, “high polyreactivity”.
Regarding “QVQLVESGGGFVQAGGRLRLSCAASGRIFWMNAMGWYRQAPGKETEFVASITYGSDSTYYADSVKGRFTISRDNAKNTVYLQMNSLKPEDTAVYYCNREGWHYGPYGYWGQGTQVTVSS”, the “polyreactivity (PSR sort gate)” value was “low polyreactivity”.
Under “QVQLVESGGGFVQAGGSLGLSCAASGSTFQFYALGWYRQAPGKERELVAVITSGDDTNYADSVKGRFTISRDNATYTVYLQMNSLKPEDTAVYYCAVEYILVYTRVRSYWFDYWGQGTQVTVSS” stands “low polyreactivity”; under “QVQLVESGGGFVQAGGSLPLSCAASGRTFGPYAMRWYRQAPGKERELVAAISSSDGSTYYADSVKGRFTISRDNAKNTVYLQMNSLKPEDTAVYYCNARYYLWSTTRWYGYDYWGQGTQVTVSS”, “high polyreactivity”.
As to “QVQLVESGGGFVQAGGSLRLRCAASGLIFAPYAMGWYRQAPGKEREFVAAITRSDGSTYYADSVKGRFTISRDNAKNTVYLQMNSLKPEDTAVYYCAAEPDTYWYTYDYWGQGSQVTVSS”, the “polyreactivity (PSR sort gate)” value was “low polyreactivity”.
With “QVQLVESGGGFVQAGGSLRLSCAACGSTFATYGMGWYRQAPGKERELVADITSGGSTYYADSVKGRFTISRDNAKNTVYLQMNSLKPEDTAVYSCNAPYGGPYYIQYDYWGQGTQVTVSS”, the “polyreactivity (PSR sort gate)” value is recorded as “low polyreactivity”.
Turning to “QVQLVESGGGFVQAGGSLRLSCAASGFIFAVNAMGWYRQAPGKERELVAAISSSGTTNYADSVKGRFTISRDNAKNTVYLQMNSLKPEDTAVYYCNKRWRDKYPQYDYWGQGTQVTVSS”, the “polyreactivity (PSR sort gate)” value is recorded as “low polyreactivity”.
As for “QVQLVESGGGFVQAGGSLRLSCAASGFIFTKYAMGWYRQAPGKERELVAAIRGSGGSTYYADSVKGRVTISRDNAKNTVYLQMNSLKPEDTAVYYCAAERSLGYDYWGQGTQVTVSS”, the “polyreactivity (PSR sort gate)” value is “high polyreactivity”.
Under “QVQLVESGGGFVQAGGSLRLSCAASGFTFWVYAMGWYRQAPGKERELVAGITWSGGSTSYADSVKGRFTISRDNAKNTVYLQMNSLKPEDTAVYYCAADDFGYPDDMNYWGQGTQVTVSS” stands “low polyreactivity”.
In the case of “QVQLVESGGGFVQAGGSLRLSCAASGFTFYRNAMGWYRQAPGKERELVAAITWSGTSTYYADSVKGRFTISRDNAKTTVYVQMNSLKPEDTAVYYCNTVGYRGRSNSRFYYWGQGTQVTVSS”, the “polyreactivity (PSR sort gate)” value is “high polyreactivity”.
Under “QVQLVESGGGFVQAGGSLRLSCAASGHIFFYYTKGWYRQAPGKERELVAGITIGGSTNYADSVKGRFTISRDNAKNSVYLQMNSLKPEDTAVYYCYVVLYVSIYSYGEYYYWGQGTQVTVSS” stands “low polyreactivity”.
For “QVQLVESGGGFVQAGGSLRLSCAASGRIFVVNAMLWYRPAPAKESEFVAAISRSGGSTYYADSVKGRFTISRDKATNTVYLQMNSLKREDTAVYYCAADIVGFRTSGTYEYWGHGTQVTVSS”, the “polyreactivity (PSR sort gate)” value is on record as “low polyreactivity”.
Regarding “QVQLVESGGGFVQAGGSLRLSCAASGSTFKTYTLGWYRQAPGKDRELVAGITSGGSTSYADSVKGRFTISRDNAKNTVYLQMNSLKPEATAVYYCNADAYLVIYFYTVRDYGYDYWGQGTQVTVSS”, the “polyreactivity (PSR sort gate)” value is “low polyreactivity”.
As to “QVQLVESGGGFVQAGGSLRLSCAASGSTFRWNAMGWYRHAPGKERELDASITAGGSTNYADSVKGRFTISRDNAKNTVYLQINSLTPEDTAVYYCNADVRRSTYYVWLYDYWGQGTQVTVSS”, the “polyreactivity (PSR sort gate)” value is “low polyreactivity”.
Consider “QVQLVESGGGFVQAGGSLRLTCAASGRTFAKNTMGWYRQAPGKERELVAAITWRGGTTYYADSVKGRVTISRDNAKNTVYLQMNSLKPEDTAVYYCAKDRYYGYFRSRSDYWGQGTQVTVSS”, for which the “polyreactivity (PSR sort gate)” value is “high polyreactivity”.
“QVQLVESGGGFVQAGGSRRLSCAASGRIFDDNAMGGYRPAPGKERELVAAISSGDYTKYADSVKGRFTISRDNSKNSVYLQMNSLKPEDTAVYYCAADIVSDSFYQPEYDYWGQGTQVTVSS”: the “polyreactivity (PSR sort gate)” value was “low polyreactivity”.
Turning to “QVQLVESGGGIFQAGGSLRLSCAASGFTFQYYAMGWYRQAPGKERELVAAISRRGGRTDYADSVKGRFTISRDNAKNTVYLQMNSLKPEDTAVYYCAAAVASPYDYWGLGTQVTVSS”, the “polyreactivity (PSR sort gate)” value is on record as “high polyreactivity”.
Under “QVQLVESGGGIVQAGCSLRLSCAASGFTFERYTMGWYRQAPGKERELVATISRRSGRTSYADSVKGRFTISRDNAKNTVYLQMNSLNPEDTAVYYCAVDDAYPDRYDYWGQGTQVTVSS” stands “high polyreactivity”.
Turning to “QVQLVESGGGIVQAGGILRLSCAASGSTFAGNGMGWYRQAPGKERELVAGIDVTGGSKYYADSVKGRYTISRDNAKNTVYLQMNSLKPEDTAVFDCNARYVYHSSFAGFDYWGQGTQVTVSS”, the “polyreactivity (PSR sort gate)” value is “low polyreactivity”.
“QVQLVESGGGIVQAGGRLRKSCAASGRTFDSNAMGWYRQAPGKERELVAGISESGGSTYYADSVKGRFTISRDNAKNTVYLQMNSLKPEDTAVYYCDYSGITVYYHRAVDFIVSYDYWGQGTQVTVSS”: the “polyreactivity (PSR sort gate)” value is on record as “low polyreactivity”.
In the case of “QVQLVESGGGIVQAGGRLRLSWAASGNTFDYYAMGWYRQAPWKERELVAAITRGGSTNYADSVKGRFTISRDNAKNTVYLQRNSRKPEDTAVYYCAAEQRAPRGADDDYCGQGTQVTVSS”, the “polyreactivity (PSR sort gate)” value is recorded as “low polyreactivity”.
Regarding “QVQLVESGGGIVQAGGSIRLRCAASGIIFVVNDMGWYRQAPGKERELVADISDSGGSTNYADSVKGRFTISRDNAKNTVYLQMNRLKPEDTAVYYCAADSADPTEYDYWGQGSQVTVSS”, the “polyreactivity (PSR sort gate)” value was “low polyreactivity”.
Under “QVQLVESGGGIVQAGGSLRISCAASGFIFSSYDMGWYRQAPGKERELVAAITWSGGSTYYADSVKARFTISRDNAKNTVYLHMNSLKPEDTAVYYCNAYPYYLVRNMDSWGQGTQVTVSS” stands “high polyreactivity”.
On to “QVQLVESGGGIVQAGGSLRISCAASGYTFKWYDMGWYRQAPGKEWELVASISWRGGSTYYADSVKGRYTISRDNAKNTVYFQMNSLKPEDTAVYYCAASLWPDYEYDYWGQGTQVTVSS”, for which the “polyreactivity (PSR sort gate)” value is “low polyreactivity”.
As for “QVQLVESGGGIVQAGGSLRISFAASGFTFLGNAMGWYRQEPGKERELVARISTRGGTTYYADSVKGRFTISRDNAKYTVYFQMNRLKPEDTAVYYCAKKYYLYSPYRTGYDYWGQGTQVTVSS”, the “polyreactivity (PSR sort gate)” value is “high polyreactivity”.
Turning to “QVQLVESGGGIVQAGGSLRLICAASGLILYGYTMGWYRQAPGKDRQLVAAISRGGGGTYYADSVKGRFTISRDNVKNTVYLQINSLKPEDTAVYYCAAYVYSLGGEYFYWGQGTLVTVSS”, the “polyreactivity (PSR sort gate)” value was “high polyreactivity”.
With “QVQLVESGGGIVQAGGSLRLRCAASGSIISVYAMGWYRQAPGKERELLDGITISGGRTYYADSVKGRFTISRDYAKNTVYLQMNSMKPEDTAVYYCAADWVYPPGLNDSVHFGEYDYWGQGSQVTVSS”, the “polyreactivity (PSR sort gate)” value is given as “low polyreactivity”.
For the sequence “QVQLVESGGGIVQAGGSLRLRCAASVRIFPCNTMGWYRQAPGKERELVAGINNGDRTYYADSVKGRFTISRDYAKNTVYLQMNILKPEDTAVYYCAADYVYFYFYGYDSWGQRTQVTVSS”, the “polyreactivity (PSR sort gate)” value is listed as “low polyreactivity”.
Under “QVQLVESGGGIVQAGGSLRLSCAASGFIFKKYVMGWYRQAPGKERELVAGISRSGGSTYYADSVKGRFTISRENAKITVYFQMNSLKPEDTAVYYGAAYIYQSPTRGGGYWGQGTQVTVSS” stands “high polyreactivity”; under “QVQLVESGGGIVQAGGSLRLSCAASGFIFSNYAMGWYRQAPGKERELVAAISSGGTITKYADSVKGRFTISRDNAKNTVYLQMNSLKTEDTAVYYCNAVVRVRFRKNDYWGQGTQVTVSS”, “high polyreactivity”; under “QVQLVESGGGIVQAGGSLRLSCAASGFTFAVNAMGWYRQAPGKERELVAGISRRGGNTYYADSVKGRFTISRDNAKNTVYLQMNSLKPEDTAVYYCARYSYSYWGQGTQVTVSS”, “high polyreactivity”.
Regarding “QVQLVESGGGIVQAGGSLRLSCAASGFTFDYNTMGWYRQAPGKERELVAAISWSGGSTYYADSVKGRFTISRDNAKNTVYLQMNSLKPEDTAVYYCAAAWSYRYELYYCGQGTQVTVSS”, the “polyreactivity (PSR sort gate)” value is listed as “low polyreactivity”.
For the sequence “QVQLVESGGGIVQAGGSLRLSCAASGFTFTRYAMGSYRQAPGKERELVATITKRGGSTYYADSVKGRFTISRDNAKNTVYLKMNSLKPEDTAVYYCAADGASRALYDYWGQGTQVTVSS”, the “polyreactivity (PSR sort gate)” value is reported as “high polyreactivity”.
Consider “QVQLVESGGGIVQAGGSLRLSCAASGFTFVNNAIGWYRQAPGKERELVASITRRGGRTYYADSVKGRFTISRDNAKNTVYLQMNSLKPEDTAVYYCAVQGYGWGPLGYAEYDYWGQGTQVTVSS”, for which the “polyreactivity (PSR sort gate)” value is listed as “high polyreactivity”.
In the case of “QVQLVESGGGIVQAGGSLRLSCAASGFTIPRYAMGWYRQAPGKERELVAAITVGGGRTYYADSVKGRFTISRDNAKNTVYLQMNSLKPEDTAVYYCAADSHASTYDYWGQGTQVTVSS”, the “polyreactivity (PSR sort gate)” value is reported as “low polyreactivity”.
In the case of “QVQLVESGGGIVQAGGSLRLSCAASGIIFKYYAMGWYRQAPGKERELVAAISRIGGSTHYADSVKGRFTISRDNAKYTVYLQMNSLKPEDTAVSYCAARVLGRPLYFIYDYWGQGTQVTVSS”, the “polyreactivity (PSR sort gate)” value is recorded as “high polyreactivity”.
Under “QVQLVESGGGIVQAGGSLRLSCAASGIIFRYYAMGWYRQAPGNERELVAVITGRGGGTYYADSVKGRFTISRDNAKNTVYLQMNSLKPEDTAVYYCAKDFTGHYPKGFDYWGQGTQLTVSS” stands “low polyreactivity”; under “QVQLVESGGGIVQAGGSLRLSCAASGIIFWDNAMGWYRQAPGKERELVASINYSGGSTYYADSVKGRFTISRDNAKNTVYLQMNSLKPEDTAVYYCAARTVTLDDWDYAYDYWGQGTQVTVSS”, “low polyreactivity”.
